Patent US20190177730

Key:
[1] = molecular target: T1, PCSK9 D374Y D374Y (Homo sapiens) (UniProt Q8NBP7+Q8NBP7); experiment: filter; conditions: all C = PP-dC (5-position), all U = Nap-dU (5-position); aptamer identity per figure legend; text names 11733-198
[2] = molecular target: T1, PCSK9 D374Y D374Y (Homo sapiens); experiment: inhibition; conditions: all C = PP-dC (5-position), all U = Nap-dU (5-position); blocks PCSK9 D374Y binding to LDL-R, room temperature; text names 11733-198

T1 sequence (Q8NBP7 whole entry, stated change not applied, chain 1 of 2): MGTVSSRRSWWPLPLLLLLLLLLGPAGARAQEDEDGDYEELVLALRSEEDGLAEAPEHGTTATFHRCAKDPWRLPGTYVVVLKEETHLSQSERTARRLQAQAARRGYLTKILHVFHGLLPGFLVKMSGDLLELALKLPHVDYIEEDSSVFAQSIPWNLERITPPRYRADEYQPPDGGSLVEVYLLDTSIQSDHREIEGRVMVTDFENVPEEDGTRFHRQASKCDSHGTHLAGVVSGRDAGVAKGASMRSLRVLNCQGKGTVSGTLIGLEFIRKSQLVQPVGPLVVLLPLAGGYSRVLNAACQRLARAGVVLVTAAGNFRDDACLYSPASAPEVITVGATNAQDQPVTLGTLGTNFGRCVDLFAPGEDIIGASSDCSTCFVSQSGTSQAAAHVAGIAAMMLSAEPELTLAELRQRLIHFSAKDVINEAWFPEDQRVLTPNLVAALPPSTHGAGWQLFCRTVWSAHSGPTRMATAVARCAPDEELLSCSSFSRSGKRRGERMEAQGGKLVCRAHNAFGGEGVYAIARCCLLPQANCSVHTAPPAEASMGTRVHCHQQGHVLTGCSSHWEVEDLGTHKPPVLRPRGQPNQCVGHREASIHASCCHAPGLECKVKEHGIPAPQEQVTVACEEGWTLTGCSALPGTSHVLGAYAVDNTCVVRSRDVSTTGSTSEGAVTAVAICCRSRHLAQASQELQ
T1 sequence (Q8NBP7 whole entry, stated change not applied, chain 2 of 2): as the sequence (Q8NBP7 whole entry, stated change not applied, chain 1 of 2) above

## AACGUACUUUAAGGCCUAUUGAGGAAACUC [11733-44 (SL1063)]
[1]
  Kd: 0.0052 nM
[2]
  EC50: 3.6 nM
